Data: patent US7078382B1, “Modulation of eNOS activity and therapeutic uses thereof” (Genentech, Inc., priority 1999, dated 2006)

Legend:
[1] = target: KDR receptor (Homo sapiens, UniProt P35968); assay: KDR receptor binding ELISA (inhibition of biotinylated native VEGF (8-109) binding); conditions: second figure of the cell, ratio to native VEGF (8-109)
Protocol: Receptor binding assays were performed in 96-well immunoplates (Maxisorp, Nunc-Immunoplate, Nalge Nunc International, Rochester, N.Y.). Each well was coated with 100 μl of a solution containing 8 μg/ml of a monoclonal antibody to KDR known as MAKD5 (Genentech, South San Francisco, Calif.) in 50 mM carbonate buffer at pH 9.6 and incubated at 4° C. overnight. The supernatant was discarded, the wells were washed three times in washing buffer (0.05% Tween 20 in PBS), and the plate was blocked (150 μl per well) with block buffer (0.5% BSA, 0.01% thimerosal in PBS) at room temperature for one hour. The supernatant was discarded, and the wells were washed.
(§1) Aliquots of this mixture (100 μl) were added to the precoated microtiter wells and the plate was incubated for 1 hour at room temperature. […] The wells were then incubated with 3, 3′, 5,5′-tetramethyl benzidine (0.2 gram/liter; Kirkegaard & Perry Laboratories, Gaithersburg, Md.) for about 10 minutes at room temperature. Absorbance was read at 450 nm on a Vmax plate reader (Molecular Devices, Menlo Park, Calif.).
(§2) Titration curves were fit with a four-parameter nonlinear regression curve-fitting program (KaleidaGraph, Synergy Software, Reading, Pa.).

[2] = test system: Flt-1 receptor; assay: Flt-1 receptor binding ELISA (inhibition of biotinylated native VEGF binding to Flt-IgG); conditions: second figure of the cell, ratio to native VEGF (8-109)
Flt-1 receptor, sequence (P17948 27-327 limits assumed): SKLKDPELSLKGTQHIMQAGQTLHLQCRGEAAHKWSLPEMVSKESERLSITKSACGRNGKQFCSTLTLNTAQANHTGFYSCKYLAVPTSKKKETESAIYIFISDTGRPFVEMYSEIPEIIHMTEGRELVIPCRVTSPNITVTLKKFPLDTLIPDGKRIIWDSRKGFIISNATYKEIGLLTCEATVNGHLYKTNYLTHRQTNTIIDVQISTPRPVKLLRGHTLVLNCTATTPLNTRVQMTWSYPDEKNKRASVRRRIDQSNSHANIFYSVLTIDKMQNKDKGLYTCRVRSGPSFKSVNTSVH
Protocol: Receptor binding assays were performed in 96-well immunoplates (Maxisorp, Nunc-Immunoplate, Nalge Nunc International, Rochester, N.Y.). Each well was coated with 100 μl of a solution containing 2 μg/ml of rabbit F(ab′)2 to human IgG Fc (Jackson ImmunoResearch, West Grove, Pa.) in 50 mM carbonate buffer at pH 9.6 and incubated at 4° C. overnight. The supernatant was then discarded, the wells were washed three times in washing buffer (0.05% Tween 20 in PBS), and the plate was blocked (150 μl per well) with block buffer (0.5% BSA, 0.01% thimerosal in PBS) at room temperature for one hour. The supernatant was discarded, and the wells were washed.
The wells were filled with 100 μl of a solution containing Flt-IgG (a chimeric Flt-human Fc molecule) at 50 ng/ml in assay buffer (0.5% BSA, 0.05% Tween 20 in PBS). The wells were incubated at room temperature for 1 hour and then washed three times in wash buffer (0.05% Tween 20 in PBS).
as §1, with “the” for “this”, “2 hours” for “1 hour”, “g/liter,” for “gram/liter;”
as §2

KDR receptor, sequence (P35968 20-327 limits assumed): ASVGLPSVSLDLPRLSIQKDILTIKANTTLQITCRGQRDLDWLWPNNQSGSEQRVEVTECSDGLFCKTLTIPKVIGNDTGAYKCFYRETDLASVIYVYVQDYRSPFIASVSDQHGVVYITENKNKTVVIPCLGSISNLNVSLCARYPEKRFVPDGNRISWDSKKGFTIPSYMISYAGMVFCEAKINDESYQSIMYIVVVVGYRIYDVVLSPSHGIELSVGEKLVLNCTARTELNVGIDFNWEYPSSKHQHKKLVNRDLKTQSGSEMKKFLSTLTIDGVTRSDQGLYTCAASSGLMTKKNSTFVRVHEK

Row | Molecule | Relative Binding Affinity KDR Receptor [1] | Relative Binding Affinity FLT-1 Receptor [2]
1 | LK-VRB-4s: VEGF (1-109) variant, F17I/M18E/Y21F/Q22E/Y25I (protein) APMAEGGGQNHHEVVKIEDVFERSICHPIETLVDIFQEYPDEIEYIFKPSCVPLMRCGGCCNDEGLECVPTEESNITMQIMRIKPHQGQHIGEMSFLQHNKCECRPKKD | 1 nM/1 | 
2 | LK-VRB-3s: VEGF (1-109) variant, F17I/M18E/Y21F/Q22K/Y25S (protein) APMAEGGGQNHHEVVKIEDVFKRSSCHPIETLVDIFQEYPDEIEYIFKPSCVPLMRCGGCCNDEGLECVPTEESNITMQIMRIKPHQGQHIGEMSFLQHNKCECRPKKD | 1 nM/1 | 
3 | LK-VRB-9s: VEGF (1-109) variant, Q22R/D63S/G65M/L66R (protein) APMAEGGGQNHHEVVKFMDVYRRSYCHPIETLVDIFQEYPDEIEYIFKPSCVPLMRCGGCCNSEMRECVPTEESNITMQIMRIKPHQGQHIGEMSFLQHNKCECRPKKD | 0.5 nM/0.5 | /300
4 | LK-VRB-20s: VEGF (1-109) variant, Y21L/Q22R/Y25S/D63S/G65M/L66R (protein) APMAEGGGQNHHEVVKFMDVLRRSSCHPIETLVDIFQEYPDEIEYIFKPSCVPLMRCGGCCNSEMRECVPTEESNITMQIMRIKPHQGQHIGEMSFLQHNKCECRPKKD | 2 nM/2 | />10000
5 | LK-VRB-14s: VEGF (1-109) variant, Y21L/Q22R/D63S/G65M/L66R (protein) APMAEGGGQNHHEVVKFMDVLRRSYCHPIETLVDIFQEYPDEIEYIFKPSCVPLMRCGGCCNSEMRECVPTEESNITMQIMRIKPHQGQHIGEMSFLQHNKCECRPKKD | 0.5 nM/0.5 | />2900
6 | LK-VRB-13s: VEGF (1-109) variant, M18E/Y25S/D63S/G65M/L66R (protein) APMAEGGGQNHHEVVKFEDVYQRSSCHPIETLVDIFQEYPDEIEYIFKPSCVPLMRCGGCCNSEMRECVPTEESNITMQIMRIKPHQGQHIGEMSFLQHNKCECRPKKD | 14 nM/14 | />14000
7 | LK-VRB-10s: VEGF (1-109) variant, Y25S/D63S/G65M/L66R (protein) APMAEGGGQNHHEVVKFMDVYQRSSCHPIETLVDIFQEYPDEIEYIFKPSCVPLMRCGGCCNSEMRECVPTEESNITMQIMRIKPHQGQHIGEMSFLQHNKCECRPKKD | 0.5 nM/0.5 | />2400
8 | LK-VRB-16s: VEGF (1-109) variant, Q22R/Y25S/D63S/G65M/L66R (protein) APMAEGGGQNHHEVVKFMDVYRRSSCHPIETLVDIFQEYPDEIEYIFKPSCVPLMRCGGCCNSEMRECVPTEESNITMQIMRIKPHQGQHIGEMSFLQHNKCECRPKKD | 0.6 nM/0.6 | />1400
9 | LK-VRB-7s*: VEGF (1-109) variant, M18E/D63S/G65M/L66R (protein) APMAEGGGQNHHEVVKFEDVYQRSYCHPIETLVDIFQEYPDEIEYIFKPSCVPLMRCGGCCNSEMRECVPTEESNITMQIMRIKPHQGQHIGEMSFLQHNKCECRPKKD | 1 nM/1 | />15000
10 | LK-VRB-19s: VEGF (1-109) variant, M18E/Q22R/Y25S/D63S/G65M/L66R as printed (same as 18s) (protein) APMAEGGGQNHHEVVKFEDVYRRSSCHPIETLVDIFQEYPDEIEYIFKPSCVPLMRCGGCCNSEMRECVPTEESNITMQIMRIKPHQGQHIGEMSFLQHNKCECRPKKD | 7 nM/7 | />35000
11 | LK-VRB-22s: VEGF (1-109) variant, GG5M/M18E/Y21L/Q22R/Y25S as printed (protein) APMAEGGGQNHHEVVKFEDVLRRSSCHPIETLVDIFQEYPDEIEYIFKPSCVPLMRCGGCCNDEMLECVPTEESNITMQIMRIKPHQGQHIGEMSFLQHNKCECRPKKD | 4 nM/4 | />30
12 | LK-VRB-24s: VEGF (1-109) variant, D63S/G65M/M18E/Y21L/Q22R/Y25S (protein) APMAEGGGQNHHEVVKFEDVLRRSSCHPIETLVDIFQEYPDEIEYIFKPSCVPLMRCGGCCNSEMLECVPTEESNITMQIMRIKPHQGQHIGEMSFLQHNKCECRPKKD | 10 nM/10 | />18000
13 | LK-VRB-23s: VEGF (1-109) variant, L66R/M185/Y21L/Q22R/Y25S as printed (protein) APMAEGGGQNHHEVVKFEDVLRRSSCHPIETLVDIFQEYPDEIEYIFKPSCVPLMRCGGCCNDEGRECVPTEESNITMQIMRIKPHQGQHIGEMSFLQHNKCECRPKKD | 11 nM/11 | />8500
14 | LK-VRB-15s: VEGF (1-109) variant, Y21L/Y25S/D63S/G65M/L66R (protein) APMAEGGGQNHHEVVKFMDVLQRSSCHPIETLVDIFQEYPDEIEYIFKPSCVPLMRCGGCCNSEMRECVPTEESNITMQIMRIKPHQGQHIGEMSFLQHNKCECRPKKD | 2 nM/2 | />21000
15 | LK-VRB-11s: VEGF (1-109) variant, M18E/Y21L/D63S/G65M/L66R (protein) APMAEGGGQNHHEVVKFEDVLQRSYCHPIETLVDIFQEYPDEIEYIFKPSCVPLMRCGGCCNSEMRECVPTEESNITMQIMRIKPHQGQHIGEMSFLQHNKCECRPKKD | 2 nM/2 | />14000
16 | LK-VRB-17s: VEGF (1-109) variant, M18E/Y21L/Q22R/D63S/G65M/L66R (protein) APMAEGGGQNHHEVVKFEDVLRRSYCHPIETLVDIFQEYPDEIEYIFKPSCVPLMRCGGCCNSEMRECVPTEESNITMQIMRIKPHQGQHIGEMSFLQHNKCECRPKKD | 3 nM/3 | />1900
17 | LK-VRB-8s*: VEGF (1-109) variant, Y2IL/D63S/G65M/LG6R as printed (protein) APMAEGGGQNHHEVVKFMDVLQRSYCHPIETLVDIFQEYPDEIEYIFKPSCVPLMRCGGCCNSEMRECVPTEESNITMQIMRIKPHQGQHIGEMSFLQHNKCECRPKKD | 0.5 nM/0.5 | />21000
18 | LK-VRB-12s: VEGF (1-109) variant, M18E/Q22R/D63S/G65M/L66R (protein) APMAEGGGQNHHEVVKFEDVYRRSYCHPIETLVDIFQEYPDEIEYIFKPSCVPLMRCGGCCNSEMRECVPTEESNITMQIMRIKPHQGQHIGEMSFLQHNKCECRPKKD | 0.4 nM/0.4 | />5600
19 | LK-VRB-21s: VEGF (1-109) variant, D63S/M18E/Y21L/Q22R/Y25S (protein) APMAEGGGQNHHEVVKFEDVLRRSSCHPIETLVDIFQEYPDEIEYIFKPSCVPLMRCGGCCNSEGLECVPTEESNITMQIMRIKPHQGQHIGEMSFLQHNKCECRPKKD | 3 nM/3 | />5600
